The values below come from patent US20200392227A1 (LYVGEN BIOPHARMA, published 2020).

In general, Kd refers to a measure of binding affinity in units of concentration. A high value points to a looser complex. As usually defined, the koff is the rate constant with which the complex falls apart. Lower therefore signals slow dissociation. As a reminder, the kon is the second-order rate constant of association.

Assay [1] has as its target T1, human FcRI protein (MednaBio, E1031) (human, UniProt P12314 16-288, limits assumed).
T1 construct: Bought; loaded on anti-penta-HIS biosensors; also called FcγRI
Put plainly: BLI. In short, it runs like this:
(§1)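 On an Octet Red96 System, anti-penta-HIS biosensors loaded with commercial human Fc receptor proteins were dipped into test IgG diluted 1:3 over 8 points from 300 nM. Fcγ receptor runs used pH 7.2 and FcRn runs used pH 6. Global fitting of these biolayer interferometry data gave the values for Kd, kon and koff, using a 1:1 binding model.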

Assay [2] addresses T2, human FcRIIA protein (MednaBio, E1033) (human, UniProt P12318 34-218, limits assumed).
T2 construct: Bought; also called FcγRIIA
T2 sequence (looked up): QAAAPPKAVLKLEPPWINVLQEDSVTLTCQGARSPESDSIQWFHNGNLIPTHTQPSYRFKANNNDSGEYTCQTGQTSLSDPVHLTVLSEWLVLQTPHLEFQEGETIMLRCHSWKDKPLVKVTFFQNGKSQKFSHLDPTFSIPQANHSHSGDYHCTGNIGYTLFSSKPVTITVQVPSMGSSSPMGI
Put plainly: BLI. The method in brief: as §1
(In BLI a coated tip is dipped into the sample, and binding shifts an interference pattern.)

Assay [3] addresses T3, human FcRIIB/C protein (MednaBio, E1034) (human, UniProt P31994 43-217, limits assumed).
T3 construct: Bought as FcRIIB/C; also called FcγRIIB; CD32B
T3 sequence (looked up): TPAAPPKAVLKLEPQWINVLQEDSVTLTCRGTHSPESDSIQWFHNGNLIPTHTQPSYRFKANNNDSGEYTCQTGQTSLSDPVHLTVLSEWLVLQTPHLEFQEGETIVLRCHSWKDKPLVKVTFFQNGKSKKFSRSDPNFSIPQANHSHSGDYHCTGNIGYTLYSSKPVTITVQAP
Put plainly: BLI. In short, it runs like this:
as §1

The target of assay [4] is T4, human FcRIIIA-F158 protein (MednaBio, E1036) (human, UniProt P08637 17-208).
T4 construct: Bought; also called FcγRIIIA(F)
T4 sequence (P08637 17-208 limits assumed): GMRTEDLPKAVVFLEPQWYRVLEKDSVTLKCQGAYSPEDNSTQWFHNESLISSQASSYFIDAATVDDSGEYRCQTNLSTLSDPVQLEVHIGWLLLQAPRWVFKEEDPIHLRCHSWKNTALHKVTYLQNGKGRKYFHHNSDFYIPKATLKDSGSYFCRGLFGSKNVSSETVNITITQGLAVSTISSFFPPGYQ
Put plainly: BLI. The method in brief: as §1

Assay [5] has as its target T5, human FcRIIIA-V158 protein (MednaBio, E1035) (human, UniProt P08637 17-208).
T5 construct: Bought; also called FcγRIIIA(V); FcgRIIIA(V)
Put plainly: BLI. In short, it runs like this:
as §1

Assay [6] addresses T6, human FcRIIIB protein (MednaBio, E1037) (human, UniProt O75015 17-200).
T6 construct: Bought; also called FcγRIIIB; FcgRIIIB
Put plainly: BLI. In short, it runs like this:
as §1

Assay [7] deals with T7, human FcRn protein (MednaBio, E1032) (human, UniProt P55899 24-297; P61769 21-119).
T7 construct: Bought; assays at pH 6
T7 sequence (P55899 24-297 limits assumed, form in doubt, chain 1 of 2): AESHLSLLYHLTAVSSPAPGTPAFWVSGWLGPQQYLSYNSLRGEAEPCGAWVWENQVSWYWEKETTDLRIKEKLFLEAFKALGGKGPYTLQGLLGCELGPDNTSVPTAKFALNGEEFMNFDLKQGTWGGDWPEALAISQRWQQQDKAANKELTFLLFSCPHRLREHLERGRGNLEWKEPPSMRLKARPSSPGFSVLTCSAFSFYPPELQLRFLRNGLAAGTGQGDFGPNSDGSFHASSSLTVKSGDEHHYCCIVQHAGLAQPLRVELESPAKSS
T7 sequence (P61769 21-119 limits assumed, form in doubt, chain 2 of 2): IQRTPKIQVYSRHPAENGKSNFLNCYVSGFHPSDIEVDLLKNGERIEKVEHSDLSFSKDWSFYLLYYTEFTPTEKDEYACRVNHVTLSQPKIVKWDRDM
Put plainly: BLI. In short, it runs like this:
as §1

For assay [8], the target named is T8, human FcγRIIC expressed on CHO cells (human, UniProt P31995 43-323).
T8 construct: whole, on cells
T8 sequence (looked up): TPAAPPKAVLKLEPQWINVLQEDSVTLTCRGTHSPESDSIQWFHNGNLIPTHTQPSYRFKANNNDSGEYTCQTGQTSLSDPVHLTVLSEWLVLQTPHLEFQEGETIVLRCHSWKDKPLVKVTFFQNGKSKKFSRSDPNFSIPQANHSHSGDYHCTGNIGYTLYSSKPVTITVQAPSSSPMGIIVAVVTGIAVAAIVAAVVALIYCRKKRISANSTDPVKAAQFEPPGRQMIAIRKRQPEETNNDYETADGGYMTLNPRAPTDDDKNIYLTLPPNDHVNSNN
Put plainly: FACS, CHO cells expressing FcγRIIC. How it is done:
(§2) For FACS analysis of the IgG mutants' binding to different FcγRs, FcγR overexpressing CHO cells were harvested using trypsin-EDTA and were suspended in cold staining buffer (3% BSA in PBS). Test IgG mutants, which were diluted in staining buffer, were added into the cells. The mixture was incubated 4° C. for 2 hours, and then washed twice with cold staining buffer and re-suspended in PE-labeled anti-human IgG followed by incubation at 4° C. for 2 hours. The mixture was washed twice with staining buffer and re-suspended in 2% PFA in PBS for FACS.

Assay [9] deals with T2, human FcRIIA protein (MednaBio, E1033). Put plainly: BLI. The method in brief:
as §1
This is another data set of the same source.

Assay [10] deals with T3, human FcRIIB/C protein (MednaBio, E1034). Put plainly: BLI. In short, it runs like this: as §1
This is another data set of the same source.

Assay [11] concerns the target T7, human FcRn protein (MednaBio, E1032). Put plainly: BLI. The method in brief: as §1
The source holds these as a separate data set.

The target in assay [12] is T9, human FcγRI expressed on CHO cells (human, UniProt P12314 16-374).
T9 construct: whole, on cells
T9 sequence (P12314 16-374): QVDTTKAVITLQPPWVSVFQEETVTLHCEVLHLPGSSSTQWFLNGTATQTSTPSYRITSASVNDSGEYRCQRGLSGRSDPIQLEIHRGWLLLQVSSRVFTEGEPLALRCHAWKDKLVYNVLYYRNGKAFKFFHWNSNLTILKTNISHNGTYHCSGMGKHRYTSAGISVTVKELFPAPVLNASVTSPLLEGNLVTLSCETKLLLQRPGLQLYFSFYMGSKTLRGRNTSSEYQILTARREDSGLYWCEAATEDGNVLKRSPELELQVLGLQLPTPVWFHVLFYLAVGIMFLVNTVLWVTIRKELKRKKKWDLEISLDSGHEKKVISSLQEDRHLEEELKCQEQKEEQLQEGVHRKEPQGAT
Put plainly: FACS, CHO cells expressing FcγRI. In short, it runs like this:
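Trypsin-harvested CHO cells overexpressing each FcγR were incubated 2 h at 4 °C with IgG mutants in 3% BSA/PBS. Bound IgG was detected with PE-labeled anti-human IgG (2 h, 4 °C), then cells were fixed in 2% PFA and analysed by flow cytometry.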
(Flow cytometry measures light scatter and fluorescence of single cells or particles in a stream.)

The target of assay [13] is T1, human FcRI protein (MednaBio, E1031). Put plainly: BLI. Here is the method: (§3) These IgG mutants were tested for binding to a panel of human Fc receptors (FcRs), including FcRn, using the Octet Red96 System (ForteBio, Model #Red96). Human FcR proteins were purchased commercially (FcRn, MednaBio, E1032; FcRI, MednaBio, E1031; FcRIIA, MednaBio, E1033; FcRIIB/C, MednaBio, E1034; FcRIIIA-F158, MednaBio, E1036; FcRIIIA-V158, MednaBio, E1035; FcRIIIB, MednaBio, E1037). All Fey receptor assays were performed at pH 7.2; all FcRn assays were performed at pH 6. The Fey receptors were loaded onto anti-penta-HIS1K (ForteBio, Cat #18-5122) biosensors at a concentration of 20 μg/mL. The loaded biosensors was then be dipped into an 8-point 1:3 dilution series of the test IgG molecules (including controls and the mutants described herein) in PBS with 0.1% BSA, 0.02% Tween-20 (pH 7.2) at a starting concentration of 300 nM. Kinetic analysis was performed using a 1:1 binding model and global fitting.
The source holds these as a separate data set.

The target in assay [14] is T2, human FcRIIA protein (MednaBio, E1033). Put plainly: BLI. Here is the method: as §3
This is another data set of the same source.

The target of assay [15] is T3, human FcRIIB/C protein (MednaBio, E1034). Put plainly: BLI. How it is done:
as §3
The source holds these as a separate data set.

In assay [16] the target is T4, human FcRIIIA-F158 protein (MednaBio, …). Put plainly: BLI. How it is done: as §3
This is another data set of the same source.

Assay [17] deals with T5, human FcRIIIA-V158 protein (MednaBio, …). Put plainly: BLI. How it is done:
as §3
This is another data set of the same source.

Assay [18] concerns the target T6, human FcRIIIB protein (MednaBio, E1037). Put plainly: BLI. Here is the method:
as §3
The source holds these as a separate data set.

In assay [19] the target is T7, human FcRn protein (MednaBio, E1032). Put plainly: BLI. Here is the method: as §3
The source holds these as a separate data set.

The target in assay [20] is T8, human FcγRIIC expressed on CHO cells. Put plainly: FACS, CHO cells expressing FcγRIIC. This is another data set of the same source.
For assay [21], the target named is T10, human FcγRIIA(H131) expressed on CHO cells (human, UniProt P12318 34-317).
T10 construct: whole, on cells
T10 sequence (looked up): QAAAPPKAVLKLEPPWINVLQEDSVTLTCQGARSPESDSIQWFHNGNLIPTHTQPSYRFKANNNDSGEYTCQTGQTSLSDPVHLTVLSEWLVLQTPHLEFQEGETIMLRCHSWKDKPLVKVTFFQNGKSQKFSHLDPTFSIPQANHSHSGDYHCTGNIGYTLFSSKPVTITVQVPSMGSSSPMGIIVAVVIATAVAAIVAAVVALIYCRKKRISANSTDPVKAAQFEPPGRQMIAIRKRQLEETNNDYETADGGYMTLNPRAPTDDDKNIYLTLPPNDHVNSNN
Put plainly: FACS, CHO cells expressing FcγRIIA(H131). How it is done:
as §2

Read-outs that look alike come from different tables or passages of the source.

T1 sequence (P12314 16-288 limits assumed): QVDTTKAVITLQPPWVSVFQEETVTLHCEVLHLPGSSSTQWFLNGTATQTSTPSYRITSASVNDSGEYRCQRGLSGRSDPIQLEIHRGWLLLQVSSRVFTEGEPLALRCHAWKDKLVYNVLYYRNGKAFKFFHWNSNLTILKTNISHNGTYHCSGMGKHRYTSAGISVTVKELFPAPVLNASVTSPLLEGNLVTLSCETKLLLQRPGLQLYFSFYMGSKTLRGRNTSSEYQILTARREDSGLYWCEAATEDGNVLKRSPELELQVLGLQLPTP
T5 sequence (P08637 17-208 F176V): as the sequence (P08637 17-208 limits assumed) above, with F160V counted along it
T6 sequence (O75015 17-200 limits assumed): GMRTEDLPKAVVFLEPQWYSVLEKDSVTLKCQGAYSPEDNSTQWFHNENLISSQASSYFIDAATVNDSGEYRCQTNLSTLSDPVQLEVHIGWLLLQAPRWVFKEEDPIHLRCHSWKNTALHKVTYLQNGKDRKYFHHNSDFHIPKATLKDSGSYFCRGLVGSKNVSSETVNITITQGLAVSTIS

B1: anti-CD137 IgG1 with Fc variant G1m19 (antibody)
heavy: EVQLVQSGAEVKKPGESLRISCKGSGYSFSTYWISWVRQMPGKGLEWMGKIYPGDSYTNYSPSFQGQVTISADKSISTAYLQWSSLKASDTAMYYCARGYGIFDYWGQGTLVTVSSASTKGPSVFPLAPSSKSTSGGTAALGCLVKDYFPEPVTVSWNSGALTSGVHTFPAVLQSSGLYSLSSVVTVPSSSLGTQTYICNVNHKPSNTKVDKKVEPKSCDKTHTCPPCPAPELLSVFLFPPKPKDTLMISRTPEVTCVVVDVEHEDPEVKFNWYVDGVEVHNAKTKPREEQYNSTYRVVSVLTVLHQDWLNGKEYKCKVSNKAFPAPIEKTISKAKGQPREPQVYTLPPSREEMTKNQVSLTCLVKGFYPSDIAVEWESNGQPENNYKTTPPVLDSDGSFFLYSKLTVDKSRWQQGNVFSCSVMHEALHNHYTQKSLSLSPGK
light: SYELTQPPSVSVSPGQTASITCSGDNIGDQYAHWYQQKPGQSPVLVIYQDKNRPSGIPERFSGSNSGNTATLTISGTQAMDEADYYCATYTGFGSLAVFGGGTKLTVLGQPKAAPSVTLFPPSSEELQANKATLVCLISDFYPGAVTVAWKADSSPVKAGVETTTPSKQSNNKYAASSYLSLTPEQWKSHRSYSCQVTHEGSTVEKTVAPTECS
notes: copies: 2 + 2
Regarding B1, the dissociation constant Kd was determined as 120 nM in assay [1], 81 nM in assay [2], 110 nM in assay [3] and 13.4 nM in [7]. Moreover, the dissociation rate constant (koff) came out at 0.086 s⁻¹ in assay [1], 0.019 s⁻¹ in assay [2], 0.028 s⁻¹ in [3] and 0.0103 s⁻¹ in [7]. In addition, the kon worked out at 710000 M⁻¹ s⁻¹ in assay [1], 240000 M⁻¹ s⁻¹ in assay [2], 260000 M⁻¹ s⁻¹ in assay [3] and 770000 M⁻¹ s⁻¹ in assay [7]. Moreover, the binding result in assay [4] is recorded as “no binding (tested: 300 nM)”; in assay [5], “no binding (tested: 300 nM)”; in assay [6], “no binding (tested: 300 nM)”; in [8] it was “binds”.

B2: anti-CD137 IgG4 with Fc variant G4m17 (antibody)
heavy: EVQLVQSGAEVKKPGESLRISCKGSGYSFSTYWISWVRQMPGKGLEWMGKIYPGDSYTNYSPSFQGQVTISADKSISTAYLQWSSLKASDTAMYYCARGYGIFDYWGQGTLVTVSSASTKGPSVFPLAPCSRSTSESTAALGCLVKDYFPEPVTVSWNSGALTSGVHTFPAVLQSSGLYSLSSVVTVPSSSLGTKTYTCNVDHKPSNTKVDKRVESKYGPPCPPCPAPEFLSVFLFPPKPKDTLMISRTPEVTCVVVDVEQEDPEVQFNWYVDGVEVHNAKTKPREEQFNSTYRVVSVLTVLHQDWLNGKEYKCKVSNKGLPSSIEKTISKAKGQPREPQVYTLPPSQEEMTKNQVSLTCLVKGFYPSDIAVEWESNGQPENNYKTTPPVLDSDGSFFLYSRLTVDKSRWQEGNVFSCSVMHEALHNHYTQKSLSLSLGK
light: B1 light
notes: copies: 2 + 2
For the molecule B2, the results for the Kd in assay [9], in [10] and in assay [11] were 600 nM, 280 nM and 52 nM, respectively. The off-rate (koff) was 0.024 s⁻¹ in assay [9], 0.019 s⁻¹ in [10] and 0.011 s⁻¹ in assay [11]. Also, the results for the kon in [9], in assay [10] and in assay [11] were 40000 M⁻¹ s⁻¹, 68000 M⁻¹ s⁻¹ and 210000 M⁻¹ s⁻¹, respectively. In addition, the binding result in assay [12] and in assay [8] was “binds” throughout.

B3: anti-CD137 IgG4 with Fc variant G4m20 (antibody)
heavy: EVQLVQSGAEVKKPGESLRISCKGSGYSFSTYWISWVRQMPGKGLEWMGKIYPGDSYTNYSPSFQGQVTISADKSISTAYLQWSSLKASDTAMYYCARGYGIFDYWGQGTLVTVSSASTKGPSVFPLAPCSRSTSESTAALGCLVKDYFPEPVTVSWNSGALTSGVHTFPAVLQSSGLYSLSSVVTVPSSSLGTKTYTCNVDHKPSNTKVDKRVESKYGPPCPPCPAPEFLGSVFLFPPKPKDTLMISRTPEVTCVVVDVSQEDPEVQFNWYVDGVEVHNAKTKPREEQFNSTYRVVSVLTVLHQDWLNGKEYKCKVSNKGLPSSIEKTISKAKGQPREPQVYTLPPSQEEMTKNQVSLTCLVKGFYPSDIAVEWESNGQPENNYKTTPPVLDSDGSFFLYSRLTVDKSRWQEGNVFSCSVMHEALHNHYTQKSLSLSLGK
light: B1 light
notes: copies: 2 + 2
With B3, the binding result in assay [13], in assay [14], in assay [15], in assay [16], in [17] and in assay [18] was “no binding (tested: 300 nM)” each time. In addition, the binding result in [20] and in assay [21] was “no binding (tested: 10 ug/ml)” each time. The equilibrium dissociation constant (Kd) in assay [19] is 19 nM. In addition, the dissociation rate constant (koff) in assay [19] worked out at 0.0098 s⁻¹. This molecule also yielded an association rate constant (kon) in assay [19] of 510000 M⁻¹ s⁻¹.
